From patent US5972683

Legend:
[1] = target: succinyl-Ala-Ala-Pro-Ala-p-nitroanilide (Artificial Sequence)
[2] = target: succinyl-Ala-Ala-Val-Ala-p-nitroanilide (Artificial Sequence)
[3] = target: succinyl-Ala-Ala-Pro-Phe-p-nitroanilide (Artificial Sequence)
[4] = target: succinyl-Ala-Ala-Pro-Leu-p-nitroanilide

Row | Substance | Specific activity (unit/mg protein), casein (unit/mg protein) (casein) | Specific activity (unit/mg protein), myofibril (unit/mg protein) (myofibrillar protein) | Specific activity (unit/mg protein), elastin-orcein (unit/mg protein) (elastin-orcein) | kcat /Km [1] [M⁻¹ s⁻¹] | kcat /Km [2] [M⁻¹ s⁻¹] | kcat /Km [3] [M⁻¹ s⁻¹] | kcat /Km [4] [M⁻¹ s⁻¹]
1 | subtilisin YaB mutant G124A (enzyme) | 3800 | 1020 | 647 | – | – | – | –
2 | subtilisin YaB mutant G159A (enzyme) | 7780 | 2040 | 2080 | – | – | – | –
3 | subtilisin YaB mutant G124L (enzyme) | 1250 | 366 | 157 | – | – | – | –
4 | subtilisin YaB mutant G151A (enzyme) | 1780 | 750 | 355 | – | – | – | –
5 | wild type subtilisin YaB (enzyme) | 8250 | 5160 | 541 | – | – | – | –
6 | subtilisin YaB mutant G159S (enzyme) | 8940 | 2330 | 1510 | – | – | – | –
7 | subtilisin YaB mutant G159F (enzyme) | 135 | – | 12 | – | – | – | –
8 | subtilisin YaB mutant G159I (enzyme) | 872 | – | 142 | – | – | – | –
9 | subtilisin YaB mutant G159L (enzyme) | 112 | – | 9 | – | – | – | –
10 | subtilisin YaB mutant 151L (enzyme) | 717 | – | 161 | – | – | – | –
11 | subtilisin YaB mutant G151A (enzyme; unit assumed) | – | – | – | 2690 | 56100 | – | 5590
12 | subtilisin YaB mutant G124A (enzyme; unit assumed) | – | – | – | 17000 | 122000 | – | –
13 | subtilisin YaB mutant G124V (enzyme) | 1400 | 605 | 425 | – | – | – | –
14 | subtilisin YaB mutant G151I (enzyme) | 511 | – | 138 | – | – | – | –

Second part, the substance after the results:

Row | Specific activity (unit/mg protein), casein (unit/mg protein) (casein) | Specific activity (unit/mg protein), myofibril (unit/mg protein) (myofibrillar protein) | Specific activity (unit/mg protein), elastin-orcein (unit/mg protein) (elastin-orcein) | kcat /Km [1] [M⁻¹ s⁻¹] | kcat /Km [2] [M⁻¹ s⁻¹] | kcat /Km [3] [M⁻¹ s⁻¹] | kcat /Km [4] [M⁻¹ s⁻¹] | Substance
15 | – | – | – | 416 | 6480 | – | – | subtilisin YaB mutant G124V (enzyme; unit assumed)
16 | – | – | – | 1670 | 14200 | 4600 | 5250 | wild type subtilisin YaB (enzyme; unit assumed)
17 | 1630 | 672 | 324 | – | – | – | – | subtilisin YaB mutant G159W (enzyme)
18 | – | – | – | 1600 | 19800 | 35700 | 4130 | subtilisin YaB mutant G159S (enzyme; unit assumed)
19 | 1010 | – | 203 | – | – | – | – | subtilisin YaB mutant G159Y (enzyme)
20 | – | – | – | 1040 | 15700 | 40500 | 3860 | subtilisin YaB mutant G159A (enzyme; unit assumed)
21 | 431 | – | 37 | – | – | – | – | subtilisin YaB mutant G159V (enzyme)
22 | 618 | – | 148 | – | – | – | – | subtilisin YaB mutant G151V (enzyme)
23 | 602 | 717 | 64 | – | – | – | – | subtilisin YaB mutant G124I (enzyme)
